According to patent US20040235717A1, “Suppression of androgen receptor transactivation through new pathways to ar and ar coactivators and repressors” (priority 2001, published 2004):
“Also recorded” adds a separate entry of the source.

Columns and labels:
[1] = system: AR transactivation; assay: AR transactivation reporter assays in SW480.7 / SW480·C7 cells; format: cell-based; details: for Effect on ARE reporter activity: SW480·C7 cells
Method: (§1) 37. […] (A) PC3-AR2, SW480·C7, and PC-3 cells were transiently co-transfected with either MMTV-CAT, PSA-CAT, 5XARE-CAT, or (TAT)2-CAT (3 μg), in the presence of AR, Smad3, Smad4 or Smad3/Smad4 as indicated. Each CAT activity is presented relative to the transactivation observed in the absence of Smad3. All values represent the mean±SD of three independent experiments.

[2] = system: PSA mRNA expression; assay: PSA mRNA expression in LNCaP cells, Northern blot; format: cell-based
[3] = system: AR transactivation; assay: AR transactivation with Smad3/Smad4, CAT reporters in PC3-AR2, PC-3 and LNCaP cells; format: cell-based, human
Method: 32. […] LNCaP cell were transfected with Smad3 or Smad4 expression vector instead of PC-3(AR)2 cells in experiments otherwise identical with those in A (B), PC-3(AR)2 cells stably transfected with AR were over-expressed with the indicated amounts of Smad3 or Smad4 or SRC-1. 3 μg of MMTV-CAT was used as a reporter plasmid in all experiments. All values represent the averages±SD of four independent experiments. […] PSA expression level was determined by Northern blotting. The probe was obtained from exon 1 of the PSA gene and labeled with [α-^32P] dCTP. A β-actin probe was used as a control for equivalent mRNA loading. (C, Table 1) The RNA samples from (A) were reverse transcribed to cDNAs and all of the samples were subjected to real-time CR using an ABI Prism 7700 Sequence Detection System (Perkin-Elmer Applied bio systems). PCR was performed using the SYBR Green PCR Core Reagents kit (Perkin-Elmer Applied Bio systems). PSA and β-actin forward, reverse primers concentrations were 2.5 μM. To reduce variability between replicates, PCR premixes which contained all reagents except for total RNA were prepared and aliquoted into 1.5 ml microfuge tubes. Specific PCR amplification products were detected by the fluorescent double-stranded DNA-binding dye SYBR Green core reagent kit. Experiments were performed with triplicates for each data point.
as §1
333. Human prostate cancer DU145 cells and PC-3 cells were maintained in Dulbecco's Minimum Essential Medium containing penicillin (25 U/ml), streptomycin (25 μg/ml), and 5% fetal calf serum. Transfections were performed using the calcium phosphate precipitation method and cells were harvested after 24 h for the chloramphenicol acetyltransferase (CAT) assay, as described previously (Kang, et al. (1999) J. Biol. Chem. 274, 8570-8576). The CAT activity was visualized and quantitated by STORM 840 (Molecular Dynamics). At least three independent experiments were carried out in each case. The SW480·C7 cells and PC-3(AR)2 cells are the gifts from Dr. Eric J. Stanbridge and Dr. T. J. Brown

[4] = system: AR transactivation; details: PC-3 and CV1 cells; Hayes et al.; cited from earlier work
[5] = system: wtAR, mtARt877a, PR, VDR, ER transactivation; assay: Steroid receptor transactivation with Smad3 in DU145 cells (wtAR, mtARt877a, PR, VDR, ER); format: cell-based, human

B1: Smad3: a downstream mediator of the TGF-β signaling pathway (protein)
chain: MSSILPFTPPIVKRLLGWKKGEQNGQEEKWCEKAVKSLVKKLKKTGQLDELEKAITTQNVNTKCITIPRSLDGRLQVSHRKGLPHVIYCRLWRWPDLHSHHELRAMELCEFAFNMKKDEVCVNPYHYQRVETPVLPPVLVPRHTEIPAEFPPLDDYSHSIPENTNFPAGIEPQSNIPETPPPGYLSEDGETSDHQMNHSMDAGSPNLSPNPMSPAHNNLDLQPVTYCEPAFWCSISYYELNQRVGETFHASQPSMTVDGFTDPSNSERFCLGLLSNVNRNAAVELTRRHIGRGVRLYYIGGEVFAECLSDSAIFVQSPNCNQRYGWHPATVCKIPPGCNLKIFNNQEFAALLAQSVNQGFEAVYQLTRMCTIRMSFVKGWGAEYRRQTVTSTPCWIELHLNGPLQWLDKVLTQMGSPSIRCSSVS
- Effect on ARE reporter activity ([1]; MMTV-ARE reporter): only enhance MMTV-ARE reporter activity
- Effect on ARE reporter activity ([1]; PSA-ARE, 5X-ARE and TAT2-ARE reporters): some slight repression
- Effect on ligand-dependent transactivation of AR ([1]; SW480.7 cells, MMTV-CAT): increased the ligand-dependent transactivation of AR
- Effect on PSA expression ([2]; absence of androgen): failed to induce PSA expression
- Effect on androgen-induced PSA mRNA expression ([2]; presence of androgen): further enhance PSA expression; also recorded: further enhances DHT-induced PSA mRNA expression
- Effect on androgen-activated AR transactivation ([3]; PC3-AR2, MMTV-CAT, 10^−8 M DHT): further enhanced
- Effect on ARE reporters (MMTV, PSA, 5X-ARE, TAT2-ARE) ([3]; PC-3 cells): enhance all these reporters
- Effect on AR transactivation [4]: suppress AR transactivation
- Enhancement of AR transactivation compared to ARA70 [5]: relatively stronger enhancement effect
- Enhancement of wtAR transactivation ([5]; 10 nM DHT): 3-4 fold
- Effect on transactivation of steroid receptors ([5]; 10^−8 M cognate ligand): significantly enhance the transactivation of AR, the progesterone receptor, and VDR
